Measured values as given in patent US20070003557A1, “Method for treating cancer using premedication” (priority 2005, published 2007).
Entries after “also recorded” stand apart in the source; their conditions may differ.

How the values were obtained:
Type in all cases: in vivo, human
[1] = Infusion reactions caused by KM-871 in patients, premedication with Benadryl and Zantac (Example 1); conditions: per patient; for Infusion reaction, 1st administration / Infusion reaction, 2nd administration / Infusion reaction, 3rd administration: KM-871 40 mg/m^2 every two weeks, Benadryl 50 mg and Zantac 50 mg parenterally 30 min before, at the administrations named in column Pre-medication; for Infusion reaction, Test: KM-871 test dose 10 mg/m^2 two weeks prior to 1st administration
Procedure: The following test was performed to suppress the infusion reactions caused by human anti-GD3 chimeric antibody.
A human chimeric antibody which specifically binds to ganglioside GD3, wherein the human chimeric antibody comprises the H chain V region of the antibody comprising the amino acid sequence represented by SEQ ID NO:3 and the L chain V region of the antibody comprising the amino acid sequence represented by SEQ ID NO:4 was produced according to U.S. Pat. No. 6,437,098 (hereinafter referred to as ‘KM-871’).
KM-871 was administered to each patient with a dose of 40 mg/m^2 once every two weeks for four times as a general rule. Benadryl (50 mg) and Zantac (50 mg) were parenterally administered to the patient 30 minutes prior to each administration of KM-871 except for the first administration.
(§1) As a test dose, KM-871 (10 mg/m^2), was administered to the patient two weeks prior to the first administration of KM-871 to confirm its safeness.

[2] = Infusion reactions caused by KM-871 in patients, premedication with Sigulair and Zertec (Example 2); conditions: per patient
Procedure: (§2) The following test was performed by using various compounds to suppress the infusion reactions caused by KM-871.
KM-871 was administered to each patient with a dose of 40 mg/m^2 once every two weeks for four times as a general rule. Sigulair (10 mg) and Zertec (10 mg) were orally administered to the patient 30 minutes prior to each administration of KM-871 except for the first administration.
as §1

[3] = Infusion reactions caused by KM-871 in patients, premedication with Sigulair, Zertec, Benadryl and Zantac (Example 3); conditions: per patient, KM-871 40 mg/m^2 every two weeks, Sigulair 10 mg, Zertec 10 mg orally and Benadryl 50 mg, Zantac 50 mg parenterally 30 min before, at the administrations named in column Pre-medication
Procedure: as §2
KM-871 was administered to each patient with a dose of 40 mg/m^2 once every two weeks for four times as a general rule. Sigulair (10 mg) and Zertec (10 mg) were orally administered and Benadryl (50 mg) and Zantac (50 mg) were parenterally administered to the patient 30 minutes prior to each administration of KM-871 except for the first administration.
as §1

[4] = Infusion reactions caused by KM-871 in patients, premedication with Sigulair, Zertec, Benadryl, Zantac and Dexametazone (Example 4); conditions: one patient
Procedure: as §2
KM-871 was administered to each patient with a dose of 40 mg/m^2 or 80 mg/m^2 every two weeks for four times as a general rule. Sigulair (10 mg) and Zertec (10 mg) were orally administered and Benadryl (50 mg), Zantac (50 mg) and Dexametazone (20 mg) were parenterally administered to the patient 30 minutes prior to each administration of KM-871 except for the first administration.
As a test dose, KM-871 (10 mg/m^2), was administered to the patient two weeks prior to the first administration of KM-871 to confirm its safeness. When toxicity or infusion reactions are observed to the patient by the administration, the administration was withdrawn.

[5] = Infusion reactions caused by KM-871 in one patient, premedication before second and third administration (Example 5)
Procedure: On the day of the second administration of KM-871, Benadryl (100 mg), Zantac (50 mg), Singulair (10 mg), Zyrtec (10 mg) and Dexametazone (10 mg) were administered to the patient followed by the administration of KM-871.
Prior to the third administration of KM-871, Benadryl (100 mg), Zantac (50 mg), Singulair (10 mg), and Zyrtec (10 mg), were administered to the patient.

[6] = premedication at 1st administration
[7] = premedication at 1st and 2nd administration
[8] = premedication at 2nd administration
[9] = KM-871 40 mg/m^2 every two weeks, Sigulair 10 mg and Zertec 10 mg orally 30 min before, at the administrations named in column Pre-medication
[10] = KM-871 test dose 10 mg/m^2 two weeks prior to 1st administration

B1: KM-871: human chimeric antibody binding ganglioside GD3; H chain V region SEQ ID NO:3, L chain V region SEQ ID NO:4; produced per U.S. Pat. No. 6,437,098 (antibody, V domains shown)
VH: EVQLVESGGDFVQPGGSLRVSCAASGFAFSHYAMSWVRQAPGKGLEWVAYISSGGSGTYYSDSVKGRFTISRDNSKNTLYLQMRSLRAEDSAVYFCTRVKLGTYYFDSWGQGTLLTVSS
VL: DIQMTQSPSSLSASVGDRVTITCSASQDISNYLNWYQQKPDKAPKLLIFYSSNLHSGVPSRFSGGGSGTDYTLTISSLQPEDIATYFCHQYSKLPWTFGQGTKVEIKR
modifications: Artificial Sequence H chain V region of the antibody; Artificial Sequence L chain V region of the antibody
[1]; [6]
  Infusion reaction, 1st administration: ARMS, LEGS, ERYTHEMA; also recorded: FEVER; also recorded: RIGORS
  Infusion reaction, 2nd administration: CHILLS; also recorded: FEVER
  Infusion reaction, 3rd administration: HIVES
  Infusion reaction, Test: FEVER; also recorded: HIVES
[1]; [7]
  Infusion reaction, 1st administration: FULLNESS IN THROAT
  Infusion reaction, 2nd administration: HIVES
  Infusion reaction, Test: ITCHING
[1]; [8]
  Infusion reaction, 1st administration: ITCHING; also recorded: RIGORS
  Infusion reaction, 3rd administration: CHILLS
[2]; [9]
  Infusion reaction, 1st administration: CHILLS; also recorded: THROAT SWELLING; also recorded: ITCHING/HIVES
  Infusion reaction, 2nd administration: HIVES
  Infusion reaction, 3rd administration: HIVES ON HANDS
[2]; [10]
  Infusion reaction, Test: FACIAL FLUSHING; also recorded: HIVES/ITCHING
[3]
  Infusion reaction, 2nd administration: ITCHING
[3]; premedication at 1st, 2nd and 3rd administrations
  Infusion reaction, 1st administration: HIVES; also recorded: ITCHING
[3]; premedication at 2nd and 4th administrations
  Infusion reaction, 1st administration: FEVER; also recorded: HIVES/ITCHING
[3]; premedication at 2nd, 3rd and 4th administrations
  Infusion reaction, 1st administration: FEVER
[4]; KM-871 40 mg/m^2 or 80 mg/m^2 every two weeks, premedication (Sigulair, Zertec, Benadryl, Zantac, Dexametazone) at 2nd administration
  Infusion reaction, 1st administration: HIVES
[4]; [10]
  Infusion reaction, Test: RASH
[5]; 4 mg/m^2 of KM-871, no premedication stated
  Infusion reactions at the first administration: Rash, Urticaria, Itching
[5]; premedication Benadryl 100 mg, Zantac 50 mg, Singulair 10 mg and Zyrtec 10 mg before KM-871
  Infusion reactions after the third administration: infusion reactions did not appear
[5]; premedication Benadryl 100 mg, Zantac 50 mg, Singulair 10 mg, Zyrtec 10 mg and Dexametazone 10 mg the same day before KM-871
  Infusion reactions after the second administration: infusion reactions did not appear
